Biological target: T1, Trm7-A26P-PT (S. cerevisiae, UniProt P38238 1-310, A26P)
T1 sequence (looked up): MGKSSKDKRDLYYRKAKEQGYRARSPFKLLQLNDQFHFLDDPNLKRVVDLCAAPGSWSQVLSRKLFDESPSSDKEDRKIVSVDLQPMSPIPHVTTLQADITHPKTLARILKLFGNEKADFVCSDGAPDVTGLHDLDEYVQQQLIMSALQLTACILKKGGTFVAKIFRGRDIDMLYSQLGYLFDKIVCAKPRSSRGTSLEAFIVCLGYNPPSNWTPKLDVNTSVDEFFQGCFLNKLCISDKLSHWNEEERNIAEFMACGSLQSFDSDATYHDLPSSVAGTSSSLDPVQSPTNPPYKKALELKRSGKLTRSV
Test: pull-down

B1: Trm734-9myc (natural protein, S. cerevisiae, UniProt Q08924 1-1013, looked up)
chain: MKDLSHYGPALCVKFYNDYVLAGYGPFIHVYDYHSATLINKCRLFHYNKVHGLSLSSEGKILAYGARSVTIVELEDVLKKESLVDFERINSDWITGATFSFDNLQIYLLTCYNKVLICDLNCEVLFRKSLGGERSILYSGIIKVFGPDKVYVNAGTVMGGVIIWDLFSETKIHNLLGHEGSIFYVNLSNNGRYVASCSDDRSIRLWDLETGKQLSVGWSHTARIWNLMFFDNDSKLISVSEDCTCRVWNIIESRENVAELSISNVYEVHLIKSIWGVDVKDDEMIAVTSGNDGRLKLIDLLQLKRHGDEETSFSLDDIAKQCGDIFEKNESIKGFQWFSFGVIAITSLGKILKYSDVTKQWKLLLTNEKFNSYPITNGIQTQNIAVFSNNKSDILLIKFSKDSADIIETEEFHLDELSKTNNCLVTEYDDDSFLLTLQSPNPREKFVCLEISLQNLKIKSKHCFNKPENFSSSCLTSFRNHILVGSRFSTLVIYNLLDESEEPFIIRRLSPGDTTTSIEFVEDKDNSAVFSVTNRDGYYVFIELTKNSLEEGPYRLSYKVLHSNKMMKGFLEGAFFNSKGEYITYGFKSSLFYLYNETNCYELASEVCGGSHRLWNLAKITDGHVLMYIKASRFHLRKIYNSIVPETLENGVHGREIRDISICPVSNTNTNDNFKDGHIFCTASEDTTIKLGYFNNRTGKVQNFWTQRKHVSGLQRCQFINHKLMISSSAREELFLWELNDKYNKRPYMTIRQALPVSTNNSDLRIMDFDVKFISQSGDFLLVTVYSDSTIKIWHYRENQNKFDLIMQGRYKTCCLFNVVFIALKEELLVVISPTDGHLVVYNITEYVPFSVDPISGDLVDHKLDATISNLPAPVAQLPVHQSGVKSLDYVANATRTSATILTGGDDNGLGLSNLKLDDSNKVTLKTSDFIAAAASSTITSGMLINGGKEVITTSVDQVIRAWEITAGKLSLVDKKRTTVADTGSLEIISNDEDADSEKTLLIGGVGLSIWKK
  fold of Trm734-9myc pulled down against Trm7-MORF from a CEN plasmid: ~10 fold
